# Assay results: patent EP4755372A1, “POLYMERIC MICELLE […] POLYMER CHAIN OF SELF-A[…]” (INSTITUTE OF SCIENCE TOKYO, priority 2023, dated 2025)
# How the values were obtained:
# [1] = Pharmacokinetics test in CT26 tumor-bearing mice, Gd concentration by ICP-MS; assay type: in vivo; conditions: caudal vein, Gd conc. 5 mg/kg; for blood retentivity and blood clearance: CT26 tumor-bearing mice; for tumor accumulation (Gd concentration): 24-48 hours after administration for SMDC-Gd4; for accumulation in different organs: liver, spleen, kidneys, brain, muscle, pancreas
# Protocol: A tumor-bearing model was prepared by subcutaneously transplanting CT26 mouse colorectal cancer cells into mice (Balb/c, 6-week-old, female, SLC), and the model was used for pharmacokinetics testing. A cell suspension that had been subcultured (5% CO2, 37°C) using DMEM medium (containing 10% FBS and 1% penicillin streptomycin) was subcutaneously injected into the mouse dorsal region (1 × 10^6 cells/mouse, DMEM). At 10 days after administration, the tumor size was randomized and each sample was administered to the mouse through the caudal vein (Gd conc. 5 mg/kg, n = 6). After administration, blood was collected and the organs (tumors, liver, spleen, kidneys, pancreases, skin, muscles and brains) were dissected after specified time periods (1, 4, 8, 24 and 72 hours). After sampling, the plasma was collected by centrifugal separation of the blood to prepare a sample. The collected organs were pretreated (heated at 70% nitric acid, heating at 90°C for ≥1 hour, followed by dilution with ultrapure water), and the Gd concentration was measured using ICP-MS.
# • Apparatus: Agilent 7700x ICP-MS/Agilent • Pretreatment apparatus: EYELA MG-2300/Tokyo Rikakikai Co., Ltd. • Standard solution: Gadolinium standard solution (Gd1000) for ICP analysis/FujiFilm-Wako • Results: Figs. 18 to 25
# [2] = tested on: CT26 mouse colorectal cancer cells; experiment: Gd-NCT experiment (neutron irradiation of CT26 tumor-bearing mice); assay type: in vivo; conditions: 3 administrations, Gd conc. 0.1 mmol/kg, neutron irradiation 10 minutes
# Protocol: A tumor-bearing model prepared by subcutaneously grafting CT26 mouse colorectal cancer cells into mice (Balb/c, 6-week-old, female, SLC) was used in an experiment for Gd-NCT. A CT26 cell suspension was injected into the mouse right femoral region (2 × 10^5 cells/mouse, DMEM). After approximately 2 weeks, each sample was administered 3 times through the caudal vein of the mouse (after 0, 24 and 48 hours, Gd conc. 0.1 mmol/kg, n = 5). A PBS-administered group was used as a comparative control. At 72 hours after the first administration, the holder in which the mouse had been placed was set on a 5 mm-thick thermoplastic sheet containing 40 wt% ^6LiF (96% ^6Li) for shielding of thermal neutrons and irradiated with neutron rays for 10 minutes only at the tumor site of the right femoral region (5 MW, Kyoto University Research Reactor, fluence: 2.87 × 10^12 to 3.29 × 10^12 thermal neutron/cm^2, 5.10 × 10^11 to 5.86 × 10^11 epithermal neutron/cm^2). The antitumor effect was confirmed by time-dependent change in tumor volume, and toxicity was confirmed by change in mouse body weight.
# [3] = tested on: CT26 mouse colorectal cancer cells; experiment: MRI R1 mapping in CT26 tumor-bearing mice; assay type: in vivo; conditions: for tumor/muscle ratio (T/M ratio) of the relaxation rate: Gd conc. 0.1 mmol/kg
# Protocol: CT26 mouse colorectal cancer cells were subcutaneously grafted into mice (BALB/c nu/nu mice, 5-week-old, female, SLC) to create a tumor-bearing model which was used for MRI. A CT26 cell suspension that had been subcultured (5% CO2, 37°C) using DMEM medium (containing 10% FBS and 1% penicillin streptomycin) was subcutaneously injected into the mouse dorsal region (1 × 10^6 cells/mouse, Hank's balanced salt solution). At 1 week after administration, the tumor size was randomized, and then each sample was administered to the mouse through the caudal vein (Gd conc. 0.1, 0.05, 0.03 and 0.01 mmol/kg). MRI imaging (R1 mapping, T1-weighted image) was carried out under isoflurane anesthesia.
# • Apparatus: Horizontal 1.0 T Bruker ICON MRI system/Bruker • Pulse sequence: Rapid acquisition with relaxation enhancement (RARE)-based inversion recovery sequence • Measuring conditions: Echo time (TE) = 10 ms; [formula] Repetition time (TR) = 10,000 ms; [formula] [formula] RARE Factor = 4; [formula] Field of view (FOV) = 28.0 × 16.0 mm^2; [formula] Slice thickness = 2.0 mm; [formula] Pixel count = 70 × 40; [formula] Resolving power (in-planeresolution) = 0.4 × 0.4 mm^2 [formula] Number of excitations = 1; [formula] • Fat suppression mode: OFF; • FOV saturation: ON • Measuring points: Before administration and 20, 40, 60 minutes and 24 hours after administration • Results: Figs. 38 to 42
# [4] = SAXS measurement (Guinier plot particle size, Kratky plot); assay type: physicochemical; conditions: SAXS in aqueous solution, 10 mg/ml
# Protocol: (§1) For the previously obtained BZAm-PEGAn-CEAk(DOTA)j and PEGAn-CEAk(DOTA)j, the particle size was confirmed by Guinier plot in small angle x-ray scattering (SAXS), and SMDC formation was confirmed by Kratky plot. The particle size was also measured by transmission electron microscopy (TEM) and dynamic light scattering. The surface potential was also measured.
# • Apparatus: nano-viewer SAXS system/Rigaku Corp. • Solvent: Ultrapure water or DMF • Sample concentration : 10 mg/ml • Measuring temperature: room temperature • Results: Fig. 12 and Fig. 13
# [5] = Evaluation of SMDC formation: DA from SEC-MALS in PBS and chloroform; assay type: physicochemical; conditions: DA = MwPBS/MwCHCl3; 5 mg/mL, 40°C
# Protocol: The foldability in water of BZAm-PEGAn-CEAk(DOTA)j obtained by the procedure described above was evaluated by comparing the absolute weight-average molecular weight Mw calculated from size exclusion chromatography in aqueous solution (PBS) and in an organic solvent (chloroform or DMF) and a system utilizing a multi-angle light scattering detector (SEC-MALS). Data obtained from SEC-MALS were analyzed using a Zimm plot, with dn/dc being the value calculated by measuring the refractive index of 4 different samples with different concentrations in each solvent (4, 3, 2 and 1 mg/mL). DA was calculated by the following formula. DA = MwPBS/MwCHCl3
# • Apparatus: JASCO Extrema HPLC system (LC-Net II/ADC, Co-4060, AS-4050, PU-4180/JASCO Corp. • Detector: UV-4070/JASCO Corp., RI-4030/JASCO Corp., DAWN 8 MALS detector/Wyatt Technology Corporation • Column: OHpak SB-804HQ column/Showa Denko K.K. • (column size: 8 mm × 300 mm, pore size: 20 nm, particle size: 10 µm, exclusion limit: 1 × 10^6 g/mol) • OHpak SB-806 MHQ column/Showa Denko K.K. • (column size: 8 mm × 300 mm, pore size: 1.5 µm, particle size: 13 µm, exclusion limit: 2 × 10^7 g/mol) • OHpak SB-G 6B Guard column/Showa Denko K.K. • Mobile phase: 137 mM NaCl, 2.7 mM KCl, 11.9 mM phosphate buffer (PBS), pH 7.4 Temperature: 40°C • Flow rate: 1 mL/min • Sample concentration : 5 mg/mL • Results: Table 21
# • Apparatus: TOSOH HLC-8220 GPC system/Tosoh Corp. • Detector: DAWN HELEOS II MALS detector/Wyatt • Column: LF-804 column/Showa Denko K.K. • (column size: 8 mm × 300 mm, pore size: 300 nm, particle size: 6 µm, exclusion limit: 2 × 10^6 g/mol) • LF-G guard column/Showa Denko K.K. • Mobile phase: chloroform • Temperature: 40°C • Flow rate: 1 mL/min • Sample concentration : 5 mg/mL • Results: Table 21
# [6] = Relaxivity measurement (r1, r2), 0.47T NMR; assay type: physicochemical; conditions: compared with Gd-DOTA, 37°C
# Protocol: Different polymer samples (Gd conc. 1 mM, 0.5 mM, 0.25 mM and 0.125 mM) were prepared, and the longitudinal relaxation time T1 and transverse relaxation time T2 were measured for each concentration. Using the obtained results, a plot of Gd concentration with respect to obtained relaxation time was drawn, and the longitudinal relaxivity r1 and transverse relaxivity r2 were derived from the slope of the fitted curve, based on the following formula. Here, (1/Ti)obs represents the measured relaxation time, and (1/Ti)d represents the relaxation time of the solvent. (1/Ti)obs = (1/Ti)d + ri [Gd]. i = 1, 2 [formula]
# • Apparatus: Bruker minispec 0.47T NMR/Bruker • Solvent: Ultrapure water or BSA (10 mg/mL)-dissolved ultrapure water • Measuring conditions: Temperature: 37°C, receiver gain = 80-82, recycle delay = 2. • Results: Table 22
# [7] = Zeta potential (surface potential) measurement; assay type: physicochemical; conditions: for surface charge (zeta potentials): ultrapure water
# Protocol: as §1
# • Apparatus: Malvern Zetasizer Nano ZSP/Malvem Panalytical • Solvent: Ultrapure water • Sample concentration : 10 mg/ml • Measuring temperature: room temperature • Results: Fig. 16 and Fig. 17
# [8] = TEM particle size measurement; assay type: physicochemical; conditions: by folding; method not given
# Protocol: as §1
# • Apparatus: JEM-2100F TEM system/JEOL Corp. • Solvent: Ultrapure water • Pretreatment: Stained on formvar/carbon supported-copper grids • Measuring temperature: room temperature • Results: Fig. 14 and Fig. 15
# [9] = Pharmacokinetics test for Gd-NCT (single or 3 administrations), Gd by ICP-MS; assay type: in vivo, mice
# Protocol: A tumor-bearing model was prepared by subcutaneous grafting of CT26 mouse colorectal cancer cells into mice (Balb/c, 6-week-old, female, SLC) by the same procedure as for the SMDC-Gd pharmacokinetics test, and a pharmacokinetics test was conducted as an experiment for Gd-NCT. In this case, however, each sample was administered once or 3 times through the caudal vein of the mouse (0, 24 and 48 hours afterwards, Gd conc. 0.1 mmol/kg, n = 5), with blood collection and organ dissection and collection (tumors, liver and kidneys) 24 hours after the final administration. Each organ was pretreated by the same procedure as described above, and the Gd concentration was also measured in the same manner using ICP-MS. • Apparatus: Agilent 7700x ICP-MS/Agilent • Pretreatment apparatus: EYELA MG-2300/Tokyo Rikakikai Co., Ltd. • Standard solution: Gadolinium standard solution (Gd1000) for ICP analysis/FujiFilm-Wako • Results: Fig. 46 and Fig. 47
# [10] = 3 doses given every 24 hours, after the final 24 hours
Compound,blood retentivity and blood clearance [1],tumor accumulation (Gd concentration) [1],antitumor effect by Gd-NCT (tumor volume) [2],tumor/muscle ratio (T/M ratio) of the relaxation rate ([3]; 1 hour after administration),Kratky plot (particle formation) [4],DA [5],longitudinal relaxivity (r1) [6],surface charge (zeta potentials) [7],accumulation in different organs [1],further results
"O=C([O-])CN1CCN(CC(=O)[O-])CCN(CC(=O)O)CCN(CC(=O)[O-])CC1.[Gd+3] [Gd-DOTA, gadoteric acid]",rapidly excreted from the blood,low,failed to exhibit sufficient antitumor activity,0.77,–,–,–,–,–,–
BZA100-PEGA80-CEA20(DOTA)9 [TP5],–,–,–,–,form particles in aqueous solution,0.88,higher,–,–,–
PEGA104-CEA30(DOTA)12 [PEGA-Gd12],–,–,–,–,–,–,higher,–,–,–
PEGA124-CEA10(DOTA)4 [PEGA-Gd4],equivalent,–,–,–,no peak could be confirmed,–,higher,negative,–,"R1 value ([3]; during the 24 hours, compared with SMDC-Gd4): consistently lower than SMDC-Gd4"
BZA100-PEGA90-CEA10(DOTA)4 [TP4],equivalent,at least twice that of SMDC-Gd17 and PEGA-Gd4,suppressed tumor growth,1.17,form particles in aqueous solution,0.91,higher,negative,equivalent to typical nanomedicine,"change in body weight after Gd-NCT [2]: without body weight loss; diameter [8]: about 6 nm; contrast effect in tumor tissue ([3]; longitudinal relaxation rate of tumors): high contrast effect; tumor/muscle ratio (T/M ratio) of the relaxation rate ([3]; within 24 hours after administration): 1.36; intratumoral Gd concentration [9, 10]: 91.2 ppm; intratumoral concentration in terms of ^157Gd groups [9, 10]: 14.3 ppm; intratumoral concentration in terms of ^157Gd groups ([9]; single dose, 24 hours after injection): 6.4 ppm; intratumoral Gd concentration ([9]; single dose, 24 hours after injection, Gd conc. 0.1 mmol/kg): 41.2 ppm"
BZA100-PEGA70-CEA30(DOTA)17 [TP6],more rapid,–,–,–,form particles in aqueous solution,0.53,higher,negative,"accumulated more abundantly in the liver, spleen and kidneys",zeta potential [7]: -37 mV
